One series concerns the target T1, full length PTH-R (Didelphis virginiana, UniProt P25107).
T1 construct: host or cells: native opossum kidney cells
Conditions: native opossom kidney cells; Juppner et al. (1991); cited from earlier work.

A further series addresses T2, PTH receptor (Rattus norvegicus, UniProt P25961).
T2 construct: host or cells: UMR106 rat osteosarcoma cells
T2 sequence (P25961 27-591): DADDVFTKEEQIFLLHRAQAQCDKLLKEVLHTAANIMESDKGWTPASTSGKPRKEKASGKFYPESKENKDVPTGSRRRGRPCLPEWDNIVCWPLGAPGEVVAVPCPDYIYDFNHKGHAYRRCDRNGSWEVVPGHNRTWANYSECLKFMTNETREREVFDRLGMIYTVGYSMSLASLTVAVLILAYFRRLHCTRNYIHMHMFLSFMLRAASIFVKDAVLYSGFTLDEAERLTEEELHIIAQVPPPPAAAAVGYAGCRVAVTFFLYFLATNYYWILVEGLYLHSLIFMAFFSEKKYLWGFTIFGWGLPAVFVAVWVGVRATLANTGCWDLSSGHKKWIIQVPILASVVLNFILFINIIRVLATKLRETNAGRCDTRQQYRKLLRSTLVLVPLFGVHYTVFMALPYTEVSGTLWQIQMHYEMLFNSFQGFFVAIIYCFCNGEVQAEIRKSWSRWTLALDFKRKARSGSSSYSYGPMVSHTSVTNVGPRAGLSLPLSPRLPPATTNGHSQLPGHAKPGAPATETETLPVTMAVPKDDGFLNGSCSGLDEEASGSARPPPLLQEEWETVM
Put plainly: PTH analog activity assay: intracellular cAMP concentration in UMR106 cells. Conditions: rat osteosarcoma cell line UMR106, cAMP by scintillation proximity assay, 1 mM IBMX, 5 minutes at room temperature. The series is classed as cell-based. The protocol:
PTH concentrations were determined by OD280 using an extinction coefficient of 6600 for the recombinant peptide and 5500 for the synthetic peptide. The rat osteosarcoma cell line UMR106 (ATCC CRL 1661) was used for in vitro testing of the peptide's ability to activate the PTH receptor. Activation of the PTH receptor leads to an intracellular rise in cAMP concentration.
The UMR106 cells were plated at 1.2×10^5 per well in a 48 well dish. The media (DMEM with fetal calf serum) was removed, and 1 mL of fresh media was applied. PTH (recombinant or synthetic) at various concentrations and 3-isobutyl-1-methyl xanthine (IBMX) at 1 mM final concentration were then added to each well of the plate, which was then incubated for 5 minutes at room temperature. The media was then removed and the cells quickly washed with PBS. The cells were then extracted three times with 1 mL of absolute ethanol. The three extractions were combined and the ethanol removed by evaporation in a "speed vac" centrifuge. The extract was then redissolved in 0.5 mL of buffer (0.05M NaAcetate, pH=5.8, and 0.01% azide). The cAMP concentration was determined by scintillation proximity assay using a kit available from Amersham.
(In general: SPA uses beads or plates that emit light when radiolabelled molecules are held near them.)

Series [1] can be described thus: Isoelectric focusing (IEF) of the purified peptide. In kind it is physicochemical. Conditions: HPLC-purified peptide after CNBr cleavage. Here is the method: The precipitated PTH polymer was then dissolved in 70% formic acid, and a 500-fold (100 to 1000-fold excess can be used) molar excess of CNBr was added. […] After CNBr cleavage, the peptides were lyophilized and resuspended in distilled water. The peptide was purified resuspended in Buffer A (0.1% TFA) and further purified by HPLC using a VYDAC C-18 Hamilton semi-preparative column. Approximately 30 mg of peptide was injected onto the column. The peptide was then eluted with a gradient of 20-40% acetonitrile/0.1% TFA over 40 minutes. The major peak, eluting at approximately 15 minutes, was collected and lyophilized to dryness. Analysis of this peptide by SDS-PAGE and IEF indicated a single species of approximately 4000 daltons with an isoelectric point of approximately 8.7.

Ends that are not written are not given here.

As usually defined, the Kd is the equilibrium constant for the complex coming apart.

T1 sequence (P25107 27-585): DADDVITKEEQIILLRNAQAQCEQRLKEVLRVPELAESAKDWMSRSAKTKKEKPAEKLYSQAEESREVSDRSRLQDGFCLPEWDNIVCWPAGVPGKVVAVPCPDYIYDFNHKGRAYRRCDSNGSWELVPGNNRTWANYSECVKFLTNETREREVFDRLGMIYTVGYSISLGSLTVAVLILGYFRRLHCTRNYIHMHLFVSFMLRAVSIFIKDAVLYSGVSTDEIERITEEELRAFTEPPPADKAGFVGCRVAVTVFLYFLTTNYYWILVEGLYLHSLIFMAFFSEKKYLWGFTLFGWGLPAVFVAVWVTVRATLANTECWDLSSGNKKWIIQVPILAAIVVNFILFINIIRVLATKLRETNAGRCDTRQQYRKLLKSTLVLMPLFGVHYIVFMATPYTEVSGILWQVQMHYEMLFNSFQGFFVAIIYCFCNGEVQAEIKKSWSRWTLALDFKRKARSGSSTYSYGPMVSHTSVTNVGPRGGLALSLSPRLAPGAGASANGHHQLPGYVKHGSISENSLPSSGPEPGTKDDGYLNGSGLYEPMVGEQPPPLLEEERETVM

For the substance “PTH (1-34): PTH ligand bound by the native full length PTH receptor, per Juppner et al. 1991”, in the series with full length PTH-R, the Kd is about 0.5 nM.

As to “recombinant PTH analog: 35 amino acid Ho/Hol PTH analog (SEQ ID NO:4/5) from CNBr cleavage of 8-mer fusion protein expressed from pBAD/PTH/OC in E. coli (SVSEIQLLHNLGKHLNSLERVEWLRKKLQDVHNYX; X: randomised place (mixture); also: X35: homoserine or homoserine lactone (mixture))”, the “activity relative to synthetic human PTH (more active)” value in the series with PTH receptor is 2-to-10 fold. Further, the isoelectric point entry in series [1] was “approximately 8.7”.
